From article PMC9838529, “The neoepitope of the complement C5b-9 Membrane Attack Complex is formed by proximity of adjacent ancillary regions of C9” (Communications Biology, 2023)
One block for each binder: values may come before it.

Experiments:
[1] = target: the molecule itself; assay: SEC; analytical size exclusion (Superdex 200 Increase 5/150 GL) of C9 after the polyC9 reaction (10 mM HEPES pH 7.2, 50 mM NaCl, overnight at 37 °C); oligomer in the void volume (~1.2 mL), monomer at ~2.1 mL
[2] = target: T1, whole MAC (C5b6, C7, C8αβγ, human C9) formed on liposomes (Homo sapiens); assay: far-Western, overlay or dot blot; slot immunoblot of MAC formed on liposomes from C5b6 (1 to 16.8 nM), C7 30 nM, C8 30 nM, C9 7 nM; probed with aE11; conditions: both partners purified
T1 construct: C5b of C5b6: beta chain of complement C5; C5b of C5b6: alpha' chain of complement C5 (alpha chain without C5a); complement component C6 of C5b6; complement component C7; complement component C8 alpha chain; complement component C8 beta chain; complement component C8 gamma chain; complement component C9, human, wild type, as in m8; oligomeric in the MAC; also called C5b-9; oligomeric human C9 …

[3] = target: T2, polyC9 (in vitro homo-oligomerised human C9, wild type) (human); assay: SPR; aE11 IgG amine-coupled to a CM5 chip (~700 RU), polyC9 as analyte; Biacore T200, 25 °C; 10 mM HEPES-NaOH pH 7.2, 150 mM NaCl, 1 mM EDTA, 0.005% P20; multi-cycle kinetics; maximum response as relative measure; one-to-one model disregarding multivalency; conditions: both partners purified
T2 construct: complement component C9, human, wild type, cloned in pSecTag2A; Tag-less purification; also called oligomeric C9; wild type oligomeric C9; source: Expi293F, purified (DEAE, CHT, SEC); oligomerised by incubating 1 mg/mL C9 overnight at 37 °C; copies: 22
T2 sequence (chain, as listed by the source): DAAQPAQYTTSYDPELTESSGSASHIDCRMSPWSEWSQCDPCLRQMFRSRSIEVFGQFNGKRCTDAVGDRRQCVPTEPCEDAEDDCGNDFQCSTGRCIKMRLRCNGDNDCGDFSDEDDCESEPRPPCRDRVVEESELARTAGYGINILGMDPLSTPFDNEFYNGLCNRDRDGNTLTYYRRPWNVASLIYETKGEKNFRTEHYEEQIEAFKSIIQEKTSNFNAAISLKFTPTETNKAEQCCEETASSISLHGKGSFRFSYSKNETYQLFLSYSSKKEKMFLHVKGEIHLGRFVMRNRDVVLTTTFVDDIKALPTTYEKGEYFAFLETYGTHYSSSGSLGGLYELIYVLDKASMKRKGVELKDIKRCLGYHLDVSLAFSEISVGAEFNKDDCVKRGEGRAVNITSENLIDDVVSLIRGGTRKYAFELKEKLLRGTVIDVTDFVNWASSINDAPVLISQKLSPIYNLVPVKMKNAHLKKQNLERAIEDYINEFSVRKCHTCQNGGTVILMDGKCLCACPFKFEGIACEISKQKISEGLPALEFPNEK

T1 sequence (P02748 22-559): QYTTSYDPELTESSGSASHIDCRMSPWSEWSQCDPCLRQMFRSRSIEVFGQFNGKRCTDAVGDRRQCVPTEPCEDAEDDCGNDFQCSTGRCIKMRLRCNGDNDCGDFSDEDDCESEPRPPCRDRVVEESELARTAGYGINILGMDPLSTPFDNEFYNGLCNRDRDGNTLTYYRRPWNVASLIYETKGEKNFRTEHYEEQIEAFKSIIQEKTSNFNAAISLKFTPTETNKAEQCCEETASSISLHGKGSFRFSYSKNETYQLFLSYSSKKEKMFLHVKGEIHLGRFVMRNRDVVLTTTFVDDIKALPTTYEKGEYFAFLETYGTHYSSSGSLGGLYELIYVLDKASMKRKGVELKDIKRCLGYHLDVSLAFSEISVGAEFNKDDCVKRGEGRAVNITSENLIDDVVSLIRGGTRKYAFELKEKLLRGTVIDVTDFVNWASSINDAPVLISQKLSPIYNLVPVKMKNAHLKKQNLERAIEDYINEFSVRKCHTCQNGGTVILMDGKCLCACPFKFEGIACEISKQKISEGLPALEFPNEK

B1: human complement C9 R65Q/V68E/P72E (natural protein)
chain: not shown
notes: complement component C9, human, human-to-murine triple mutant; also called triple mutant; source: Expi293F, purified tag-less (anion exchange, CHT, SEC)
binding result [1]: binds

binding result [2]: binds | koff [3]: ~1e-06 s⁻¹
B2: aE11 IgG (antibody, V domains shown)
VH: QVQLKESGPGLVAPSQSLSITCTVSGFSLTVYGVNWIRQPPGKGLEWLGMIWGDGSTDYNSALKSRLSITKDNSKSQVFLKMNSLQTDDTARYYCARDRSYGGSSAWFGYWGQGTLVTVSA
VL: DIQMTQTTSSLSASLGDRVTISCRASHDISNYLNWYQQKPDGTLKLLIYYTSRLHSGVPSRFSGSGSGTDYSLTISNLEQEDVATYFCQQGNYLPYTFGGGTKLEIK
notes: heavy chain of mouse monoclonal aE11; variable region as the heavy chain of m1 in PDB 8DE6; light chain (kappa) of mouse monoclonal aE11; variable region as the light chain of m1 in PDB 8DE6; also called monoclonal aE11; full aE11 IgG; source: purified from hybridoma supernatant by protein G chromatography

B3: human complement C9 V68E (natural protein)
chain: not shown
notes: complement component C9, human, human-to-murine point mutant; source: Expi293F, purified tag-less (anion exchange, CHT, SEC)
binding result [1]: binds
